B1: Y425I: Amino-acid sequence of PPO1 from rice mutant (protein)
chain: MAAAAAAMATATSATAAPPLRIRDAARRTRRRGHVRCAVASGAAEAPAAPGARVSADCVVVGGGISGLCTAQALATKHGVGDVLVTEARARPGGNITTAERAGEGYLWEEGPNSFQPSDPVLTMAVDSGLKDDLVFGDPNAPRFVLWEGKLRPVPSKPGDLPFFDLMSIPGKLRAGLGALGVRAPPPGREESVEDFVRRNLGAEVFERLIEPFCSGVYAGDPSKLSMKAAFGKVWRLEDTGGSIIGGTIKTIQERGKNPKPPRDPRLPTPKGQTVASFRKGLTMLPDAITSRLGSKVKLSWKLTSITKSDNKGYALVYETPEGVVSVQAKTVVMTIPSYVASDILRPLSSDAADALSIFYYPPVAAVTVSYPKEAIRKECLIDGELQGFGQLHPRSQGVETLGTIYSSSLFPNRAPAGRVLLLNIIGGSTNTGIVSKTESELVEAVDRDLRKMLINPKAVDPLVLGVRVWPQAIPQFLIGHLDHLEAAKSALGKGGYDGLFLGGNYVAGVALGRCVEGAYESASQISDYLTKYAYK
modifications: Amino-acid sequence of PPO1 from rice mutant (OsPPO1 Y425I)
B2: OsPPO1 WT: Amino-acid sequence of PPO1 from wild-type rice (protein)
chain: MAAAAAAMATATSATAAPPLRIRDAARRTRRRGHVRCAVASGAAEAPAAPGARVSADCVVVGGGISGLCTAQALATKHGVGDVLVTEARARPGGNITTAERAGEGYLWEEGPNSFQPSDPVLTMAVDSGLKDDLVFGDPNAPRFVLWEGKLRPVPSKPGDLPFFDLMSIPGKLRAGLGALGVRAPPPGREESVEDFVRRNLGAEVFERLIEPFCSGVYAGDPSKLSMKAAFGKVWRLEDTGGSIIGGTIKTIQERGKNPKPPRDPRLPTPKGQTVASFRKGLTMLPDAITSRLGSKVKLSWKLTSITKSDNKGYALVYETPEGVVSVQAKTVVMTIPSYVASDILRPLSSDAADALSIFYYPPVAAVTVSYPKEAIRKECLIDGELQGFGQLHPRSQGVETLGTIYSSSLFPNRAPAGRVLLLNYIGGSTNTGIVSKTESELVEAVDRDLRKMLINPKAVDPLVLGVRVWPQAIPQFLIGHLDHLEAAKSALGKGGYDGLFLGGNYVAGVALGRCVEGAYESASQISDYLTKYAYK
modifications: Amino-acid sequence of PPO1 from wild-type rice (OsPPO1 WT)

Columns and labels:
[1] = system: PPO-deficient Escherichia coli (ΔhemG); assay: PPO-deficient E. coli (ΔhemG) transformed by rice OsPPO1 mutant genes, growth on LB medium containing herbicide; conditions: 500 nM compound A
OsPPO1 = assay: In vitro enzyme activity test of OsPPO1 proteins (fluorescence, substrate protoporphyrinogen); assay type: biochemical, rice; conditions: enzyme 500 nM, protoporphyrinogen 0.125-16 μM, excitation 410 nm, detection 630 nm
Description: Protoporphyrinogen, a substrate catalyzed by PPO, was prepared by reducing protoporphyrin with sodium amalgam. 10 mg of protoporphyrin was dissolved in 10 mL solvent, added with 20% sodium amalgam at the rate of 0.2 g/mL, reacted for 2 hours, then filtered under the protection of nitrogen in dark place. After the reaction was completed, the reaction solution should become achromatic or light brown. The reaction solution was diluted by adding with reaction buffer (100 mM Tris-HCl, 1 mM EDTA, 5 mM DTT, 0.1% Tween 20/80), and 10% hydrochloric acid was used to adjust pH to about 8.0. […]
3) The constructed fusion expression vector pET28a-MBP-OsPPO1 was transferred into E. coli BL21 (DE3), subjected to induced-expression with 0.5 mM IPTG, then purified with the Ni-NTA column, afterwards subjected to thrombin digestion, dialysed, and purified secondly by dextrin-column and Ni-column. […] The collected strains were re-suspended with the Ni-buffer A (50 mM Tris pH 8.0, 500 mM NaCl, 50 mM imidazole), homogenized by high pressure cell homogenizer, and centrifuged at 4000×g at 4° C. for 30 minutes; the supernatant was purified with the Ni column, then the purity thereof was detected by SDS-PAGE. The thrombin enzyme was added according to the quantity of proteins, dialyzed with 50 mM Tris pH 8.0, 500 mM NaCl, 1 mM DTT buffer. […]

Arabidopsis thaliana = assay: Herbicide resistance test of Arabidopsis thaliana seeds overexpressing crop PPO1 WT or mutant on MS medium; assay type: in vivo; conditions: overexpressed in Arabidopsis thaliana seed
Description: 1) Sowing: plump and vernalized wild-type Arabidopsis thaliana seeds were selected, treated with 75% alcohol for 1 minute, disinfected with 10% NaClO for 6 minutes, and washed with sterile water for 5 to 6 times. After the sterilization was completed, the seeds were placed on a MS medium plate for one week, then transplanted to sterilized nutrient soil (nutrient soil:vermiculite=1:1) and cultured in a greenhouse at (25±2) ° C. with a photoperiod of 16 h/8 h (light/dark).
4) Infestation of Arabidopsis thaliana inflorescences: the uninfected Arabidopsis thaliana with good growth state and lush inflorescences were selected for infection and their fruit pods were cut off from the plants by scissors prior to transformation. The Arabidopsis thaliana inflorescences were dipped in the prepared infection solution for 0.5 to 1 minute. Then the infected Arabidopsis thaliana seedlings were placed in dark and humid conditions for 24 hours. After one week, the infection was repeated.
After the transformation of dipped Arabidopsis thaliana inflorescences, Arabidopsis thaliana TO-generation seeds were collected and sowed on a resistant MS plate containing 30 mg/L hygromycin to screen positive plants.
The obtained overexpressed mutant and wild-type Arabidopsis thaliana seeds of different crops were tested for resistance on a MS medium (petri dish) containing different concentrations of PPO-inhibiting herbicidal compounds, as shown in FIG. 12-23.

[2] = system: Huaidao No. 5 rice seedlings; assay type: in vivo
Description: Rice seeds were peeled, washed with sterile water as many times as needed until the washing water became clear. Then the seeds were disinfected with 70% alcohol for 30 seconds and then with 5% sodium hypochlorite. The seeds were cultivated in a horizontal shaker for 20 minutes, disinfected with sodium hypochlorite and washed with sterile water for 5 times, placed on a sterile absorbent paper to air-dry the surface moisture of the seeds, and inoculated in an induction medium to cultivate the callus at 28° C. • 4) Infection of rice callus with Agrobacterium: the Huaidao No. 5 callus with a diameter of 3 mm was selected for sub-cultivation for 10 days and the callus was collected into a 50 ml centrifuge tube. […]

Molecule	growth of ΔhemG transformant on LB medium containing compound A, compared with the wild type [1]	enzyme activity relative to WT (OsPPO1)	tolerance to compound A compared with wild-type Arabidopsis thaliana (Arabidopsis thaliana; different concentrations of compound A)	tolerance to flumioxazin compared with wild-type Arabidopsis thaliana (Arabidopsis thaliana; different concentrations of flumioxazin)	tolerance to saflufenacil compared with wild-type Arabidopsis thaliana (Arabidopsis thaliana; different concentrations of saflufenacil)	tolerance/resistance to compound A compared with wild-type Huaidao No. 5 ([2]; T0 generation rice seedlings, compound A sprayed)	resistance compared with the wild-type control ([2]; compound A 135 g/ha and 270 g/ha)
B1	grew normally	lower than WT					
B2			certain level of tolerance	certain level of tolerance	certain level of tolerance	certain level of tolerance/resistance	showed no difference
